Values of other authors as cited in US20240238439A1, “HER3-BINDING ANTIBODY-DRUG CONJUGATE” (Hummingbird Bioscience Pte. Ltd., priority 2023, published 2024).

Tests used:
[1] = molecular target: human HER3 (Homo sapiens, UniProt P21860)
[2] = test system: cyno, mouse and rat HER3
[3] = molecular target: interaction between HER3 and HER2 (Homo sapiens, UniProt P21860); settings: dose-dependent
[4] = molecular target: interaction between HER3 and EGFR (Homo sapiens, UniProt P21860)
[5] = test system: HER3 overexpressing cells
[6] = test system: HER3-mediated signalling in cells of HER3-expressing cancer cell lines; settings: in vitro
[7] = test system: HER3-mediated signalling in HER3-expressing human cancer cell line-derived xenograft tumors; settings: in vivo
[8] = test system: xenograft tumors derived from a human cancer cell line harbouring an NRG gene fusion
[9] = test system: cancer cells; settings: in vitro
[10] = test system: human cancer cell line-derived xenograft tumors; settings: in vivo
[11] = test system: thyroid cancer cell lines harbouring the V600E BRAF mutation
[12] = Differential Scanning Fluorimetry

binding to human HER3 [1]: high affinity and specificity
cross-reactivity with other human EGFR family members [1]: no cross-reactivity
ligand dependence of binding to HER3 [1]: ligand (NRG)-independent
affinity of binding to human HER3 ([1]; in the presence or absence of human NRG1): subpicomolar
binding to cyno, mouse and rat HER3 [2]: high-affinity binding
inhibition of interaction between HER3 and HER2 [3]: highly potent
B1: 10D1F hIgG1: HER3-binding antibody clone 10D1F (VH SEQ ID NO:33, VL SEQ ID NO:58) in human IgG1/Vκ format (antibody, V domains shown)
VH: QVQLQESGPGLVKPSQTLSLTCTVSGYSITSGYSWHWIRQHPGKGLEWIGSIRYSGGTDYNPSLKSLVTISADTSKNQFSLKLSSVTAADTAVYYCARMTTAPWYPFDYWGQGTTVTVSS
VL: DIQMTQSPSSVSASVGDRVTITCKASQIVGSNVAWYQQKPGKAPEPLIYSASYLYSGVPSRFSGSGSGTDFTLTISSLQPEDFATYYCQQYSSHPLTFGQGTKLEIK
inhibition of interaction between HER3 and EGFR [4]: inhibits interaction between HER3 and EGFR in a dose-dependent fashion
ADCC activity [5]: induces ADCC activity against HER3 overexpressing cells in a dose-dependent manner
HER3-mediated signalling [6]: inhibits HER3-mediated signalling
HER3-mediated signalling [7]: inhibits HER3-mediated signalling
growth of xenograft tumors [8]: extremely potent at inhibiting growth
growth of cancer cells [9]: potently inhibits the growth of cancer cells in vitro
growth of xenograft tumors [10]: potently inhibits growth of human cancer cell line-derived xenograft tumors in vivo
in vitro proliferation [11]: inhibits in vitro proliferation
melting temperature [12]: 70.0 °C
